Assay results reported in paper PMC4432651, “Dynamic interplay between catalytic and lectin domains of GalNAc-transferases modulates protein O-glycosylation” (Nature Communications, 2015).
Where no end group is shown, it is not given here.

Columns and labels:
[1] = biological target: T1, polypeptide N-acetylgalactosaminyltransferase 2 (GalNAc-T2), K75-Q571 (human, UniProt Q10471 75-571); test: other fluorescence titration; tryptophan fluorescence quenching of GalNAc-T2 (1 µM) by peptides at 1-500 µM; 25 mM Tris, 150 mM NaCl, pH 7.5, 25 °C; no UDP/Mn2+; single binding site model; conditions: both partners purified
T1 construct: GalNAc-T2 (polypeptide N-acetylgalactosaminyltransferase 2), residues K75-Q571: catalytic domain, flexible linker and lectin domain; Theoretical MW 56.7 kDa (D1:p10); source: expression plasmid pPICZαAgalnact2 (K75-Q571)

[2] = biological target: T1, polypeptide …; test: other fluorescence titration; tryptophan fluorescence quenching of GalNAc-T2 (1 µM) by peptides at 1-500 µM; 25 mM Tris, 150 mM NaCl, pH 7.5, 25 °C; with 400 µM UDP and 1 mM MnCl2; single binding site model; conditions: both partners purified
[3] = biological target: the molecule itself; test: SAXS; solution scattering with ensemble analysis (EOM), monomer and dimer pools; enzyme without ligands (2.5, 5.0 and 10.0 mg/ml) or with UDP or UDP-GalNAc

T1 sequence (Q10471 75-571): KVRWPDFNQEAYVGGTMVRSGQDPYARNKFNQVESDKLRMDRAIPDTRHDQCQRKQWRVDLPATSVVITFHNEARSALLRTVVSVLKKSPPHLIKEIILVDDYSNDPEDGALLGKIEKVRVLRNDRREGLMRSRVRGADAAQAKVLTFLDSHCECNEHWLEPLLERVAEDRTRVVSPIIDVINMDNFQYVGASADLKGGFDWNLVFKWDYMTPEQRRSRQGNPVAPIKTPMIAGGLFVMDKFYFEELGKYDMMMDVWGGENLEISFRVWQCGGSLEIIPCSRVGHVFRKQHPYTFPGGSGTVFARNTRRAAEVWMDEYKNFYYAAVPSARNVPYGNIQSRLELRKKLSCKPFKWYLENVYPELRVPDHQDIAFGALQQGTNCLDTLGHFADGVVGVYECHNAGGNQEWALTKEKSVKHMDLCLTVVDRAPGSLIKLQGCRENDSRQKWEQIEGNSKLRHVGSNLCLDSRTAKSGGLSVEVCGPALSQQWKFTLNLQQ

Binder | Kd [1] | Kd [2] | stoichiometry N [3]
GTT(GalNAc)PSPVPTTSTT(GalNAc)SA (not fully specified (C-terminus), Made on Rink amide resin, so the C-terminus is probably an amide (surmised); source: synthetic peptide (Fmoc solid-phase synthesis on Rink Amide MBHA resin, HPLC purified)) [MUC5AC-3-13 diglycosylated peptide] | 11 ± 4 µM | 17 ± 9 µM | 
polypeptide N-acetylgalactosaminyltransferase 2 (GalNAc-T2), K75-Q571 (enzyme, GalNAc-T2, residues K75-Q571, catalytic domain, flexible linker and lectin domain; Monomers and dimers coexist in solution by SAXS; also called wild-type (WT) enzyme) not shown |  |  | 2
GTTPSPVPTTSTT(GalNAc)SA (Made on Rink amide resin, so the C-terminus is probably an amide (surmised); source: synthetic peptide (Fmoc solid-phase synthesis on Rink Amide MBHA resin, HPLC purified)) [MUC5AC-13 glycopeptide] | 8 ± 3 µM | 5 ± 1 µM | 
GTTPSPVPTTSTTSA (peptide named after mucin MUC5AC; Made on Rink amide resin, so the C-terminus is probably an amide (surmised); source: synthetic peptide (Fmoc solid-phase synthesis on Rink Amide MBHA resin, HPLC purified)) [MUC5AC peptide (naked)] | 7 ± 3 µM | 31 ± 16 µM | 
